The chains are these.
B1: PDZ and LIM domain protein 2, residues 284 to 339; numbered along this chain, Q96JY6 (parent)
chain: HTCEKCSTSIANQAVRIQEGRYRHPGCYTCADCGLNLKMRGHFWVGDELYCEKHAR

± gives the uncertainty stated by the source.

The variants in this series derive from B1. Description: abundance fitness (aPCA) (normalised: wild type 0, dead -1); higher = more abundant; growth selection in yeast, the domain comes from the species named. The settings on record: Homo sapiens.
For HTCEKCSTSIANQAVRIQEGRYRGPGCYTCADCGLNLKMRGHFWVGDELYCEKHAR [H24G], the abundance fitness is -0.489 ± 0.089. With HTCEKCSTSIANQAVRIEEGRYRHPGCYTCADCGLNLKMRGHFWVGDELYCEKHAR [Q18E] the figure was 0.002 ± 0.12. With HTCEKCSTSIANQAVRIQEGRYRHPGCYTCADCGLNLKMRGKFWVGDELYCEKHAR [H42K] the figure was -0.113 ± 0.064. With HTCEKCSTSIANQAVRIQEGRYRHPGCYTCADCGLNLKMRGYFWVGDELYCEKHAR [H42Y] the figure was -0.393 ± 0.12. Consider HTCEKCSTSIANQAVRIQEGRYRHPGCYTCADCGLNLKMRGEFWVGDELYCEKHAR [H42E], for which the abundance fitness was 0.16 ± 0.08. Then HTCEKCSTSIANQAVRIQEGRYRHPGCYTCADCGLNLKMRNHFWVGDELYCEKHAR [G41N], with -0.146 ± 0.22.

In the case of HTCEKCSTSIANQAVRIQEGRYRHPGCYTCADCGLNLKMRLHFWVGDELYCEKHAR [G41L], the abundance fitness was -0.437 ± 0.061. With HTCEKCSTSIANQAVRIQEGRYRHPGCYTCADCGLNDKMRGHFWVGDELYCEKHAR [L37D] the figure was -0.249 ± 0.14.

For the variant HTCEKCSTSIANQAVRIQEGRYRHPGCYTCADCGLNQKMRGHFWVGDELYCEKHAR [L37Q], the abundance fitness is -0.599 ± 0.1. On to HTCEKCSTSIANQAVRIQEGRYRHPGCYTCADCGLNVKMRGHFWVGDELYCEKHAR [L37V], for which the abundance fitness is -0.109 ± 0.064. With HTCEKCSTSIANQAVRIQEGRYRHPGCYTCADCGLNLKMRGHFWVGDELYHEKHAR [C51H] the figure was -0.827 ± 0.18; with HTQEKCSTSIANQAVRIQEGRYRHPGCYTCADCGLNLKMRGHFWVGDELYCEKHAR [C3Q], -0.82 ± 0.13; with HTWEKCSTSIANQAVRIQEGRYRHPGCYTCADCGLNLKMRGHFWVGDELYCEKHAR [C3W], -1.05 ± 0.2.

Consider HTCEKCSTSIANQAVNIQEGRYRHPGCYTCADCGLNLKMRGHFWVGDELYCEKHAR [R16N], for which the abundance fitness amounted to 0.191 ± 0.14. Then HTCEKCSTSIANQAVRIQMGRYRHPGCYTCADCGLNLKMRGHFWVGDELYCEKHAR [E19M], with -0.163 ± 0.13. On to HTCEKCSTSIANQAVRIQEGRYRHPGCYTCADCRLNLKMRGHFWVGDELYCEKHAR [G34R], for which the abundance fitness is -0.064 ± 0.084. Then HTCEKCSTSIANQAVRIQEGRYRHPGCYTCADVGLNLKMRGHFWVGDELYCEKHAR [C33V], with -0.885 ± 0.15. With HTCEKCSTSIANQAVRIQEGRYRHPGCYTCADCGLNLKMRGHFWVGDELYCEKHQR [A55Q], the abundance fitness worked out at 0.041 ± 0.15. With HTCEKCSTSIANQAVRIQEGRSRHPGCYTCADCGLNLKMRGHFWVGDELYCEKHAR [Y22S] the figure was -0.292 ± 0.053; with HTCEKCSTSIANQAVRIQEGRFRHPGCYTCADCGLNLKMRGHFWVGDELYCEKHAR [Y22F], 0.108 ± 0.076; with HTCEKCSTSIANQAVRIQEGRYRHPGCYTCADCGLNLKMRGHFCVGDELYCEKHAR [W44C], 0.005 ± 0.15. On to HTCRKCSTSIANQAVRIQEGRYRHPGCYTCADCGLNLKMRGHFWVGDELYCEKHAR [E4R], for which the abundance fitness was -0.624 ± 0.052. Then HTCIKCSTSIANQAVRIQEGRYRHPGCYTCADCGLNLKMRGHFWVGDELYCEKHAR [E4I], with -0.331 ± 0.26. Then HTCEKCSTSIANQASRIQEGRYRHPGCYTCADCGLNLKMRGHFWVGDELYCEKHAR [V15S], with -0.231 ± 0.069.

HTCEKCSTSIANQAQRIQEGRYRHPGCYTCADCGLNLKMRGHFWVGDELYCEKHAR [V15Q]: the abundance fitness was -0.115 ± 0.1. With HTCEKCSTSIANQAPRIQEGRYRHPGCYTCADCGLNLKMRGHFWVGDELYCEKHAR [V15P] the figure was -0.654 ± 0.14; with HTCEKCSTSIANQAVRIQEGRYRHPGCYTCADCGLNLKMVGHFWVGDELYCEKHAR [R40V], 0.092 ± 0.063; with HTCEGCSTSIANQAVRIQEGRYRHPGCYTCADCGLNLKMRGHFWVGDELYCEKHAR [K5G], -0.036 ± 0.057.

For HTCEWCSTSIANQAVRIQEGRYRHPGCYTCADCGLNLKMRGHFWVGDELYCEKHAR [K5W], the abundance fitness was -0.553 ± 0.18. In the case of HTCEKCSHSIANQAVRIQEGRYRHPGCYTCADCGLNLKMRGHFWVGDELYCEKHAR [T8H], the abundance fitness was determined as 0.173 ± 0.095. With HTCEKCSTSILNQAVRIQEGRYRHPGCYTCADCGLNLKMRGHFWVGDELYCEKHAR [A11L] the figure was -0.827 ± 0.12; with HTCEKCSTSISNQAVRIQEGRYRHPGCYTCADCGLNLKMRGHFWVGDELYCEKHAR [A11S], 0.196 ± 0.073. Regarding HTCEKCSTSIANQAVRIQEGRYRHPGCYTCADCGLNLKMRGHFWVGDELYCAKHAR [E52A], the abundance fitness is -0.183 ± 0.059.

As for HTCEKCSTSIANQAVRIQEGRYSHPGCYTCADCGLNLKMRGHFWVGDELYCEKHAR [R23S], the abundance fitness is -0.278 ± 0.072. Then HTCEKCSTSIANQAVRIQEGRYYHPGCYTCADCGLNLKMRGHFWVGDELYCEKHAR [R23Y], with -0.303 ± 0.066; and HTCEKCSTSIANQAVRIQEGRYRHPRCYTCADCGLNLKMRGHFWVGDELYCEKHAR [G26R], with 0.127 ± 0.068.

Regarding HTCEKCSTSIANQAVRIQEFRYRHPGCYTCADCGLNLKMRGHFWVGDELYCEKHAR [G20F], the abundance fitness came to 0.116 ± 0.12.

Turning to HTCEKCSTSIANQAVRIQEGRYRHPGCYTCADCGLNLKMRGHFWVEDELYCEKHAR [G46E], the abundance fitness came to 0.047 ± 0.064. With HTCEKCSTSIANQAVRIQEGRYRHPGCYTCADCGLNLKMRGHFWVHDELYCEKHAR [G46H] the figure was -0.238 ± 0.19; with HTCEKCSTSIANQAVRIQEGDYRHPGCYTCADCGLNLKMRGHFWVGDELYCEKHAR [R21D], -0.217 ± 0.15. Then HTCEKCSTSIANQAVRIQEGRYRHPGCYPCADCGLNLKMRGHFWVGDELYCEKHAR [T29P], with -0.767 ± 0.28; and HTCEKCSTSIANQAVRIQEGRYRHPGAYTCADCGLNLKMRGHFWVGDELYCEKHAR [C27A], with -0.428 ± 0.087.

Take HTCEKCSTSIANQAVRIQEGRYRHPGCYTCACCGLNLKMRGHFWVGDELYCEKHAR [D32C]: the abundance fitness was -0.188 ± 0.12. Then HTCEKCSTSIANQAVRIQEGRYRHPGCYTCAWCGLNLKMRGHFWVGDELYCEKHAR [D32W], with -0.235 ± 0.06.

On to HTCEKASTSIANQAVRIQEGRYRHPGCYTCADCGLNLKMRGHFWVGDELYCEKHAR [C6A], for which the abundance fitness is -0.408 ± 0.14. Consider HTCEKGSTSIANQAVRIQEGRYRHPGCYTCADCGLNLKMRGHFWVGDELYCEKHAR [C6G], for which the abundance fitness was -0.437 ± 0.093. Then HTCEKCSTSIANQAVRIQEGRYRHPGCYTCADCGLNLKMRGHFWVGDELYCEWHAR [K53W], with 0.164 ± 0.11.

The record behind these values is the Human Domainome abundance scans (Beltran et al. 2025).
